# From patent publication US11111296B2, “Compositions and methods for treating cardiac dysfunction” (THE BROAD INSTITUTE, INC., priority 2015, dated 2021)
# B1: S100P: RAGE ligand, non-cachexia-inducing (protein)
# chain: MTELETAMGMIIDVFSRYSGSEGSTQTLTKGELKVLMEKELPGFLQSGKDKDAVDKLLKDLDANGDAQVDFSEFIVFVAAITSACHKYFEKAGLK
# B2: S100A8/9: RAGE ligand, cachexia-inducing (protein)
# chain 1: MLTELEKALNSIIDVYHKYSLIKGNFHAVYRDDLKKLLETECPQYIRKKGADVWFKELDINTDGAVNFQEFLILVIKMGVAAHKKSHEESHKE
# chain 2: MTCKMSQLERNIETIINTFHQYSVKLGHPDTLNQGEFKELVRKDLQNFLKKENKNEKVIEHIMEDLDTNADKQLSFEEFIMLMARLTWASHEKMHEGDEGPGHHHKPGLGEGTP
# B3: S100B: RAGE ligand, non-cachexia-inducing (protein)
# chain: SELEKAMVALIDVFHQYSGREGDKHKLKKSELKELINNELSHFLEEIKEQEVVDKVMETLDNDGDGECDFQEFMAFVAMVTTACHEFFEHE
# B4: S100A7: RAGE ligand, cachexia-inducing; sequence NP_002954.2 (protein)
# chain: MSNTQAERSIIGMIDMFHKYTRRDDKIEKPSLLTMMKENFPNFLSACDKKGTNYLADVFEKKDKNEDKKIDFSEFLSLLGDIATDYHKQSHGAAPCSGGSQ
# System: myosin heavy chain in cells
# Experiment: cachexia functional assay (levels of myosin heavy chain in treated cells)
# Format: cell-based
# Conditions: for cachexia-inducing activity of RAGE ligands: FIG. 8
# Description: The compounds that are thus designed or selected may further be tested in an in vitro, in vivo, or ex vivo assays to determine if they regulate RAGE. Such assays are known to one skilled in the art. In some embodiments, the assay is a cachexia functional assay as described herein and further described in PCT/US2014/068631, which is incorporated herewith in its entirety.
# In studies described herein below, a refined model of the cachectic signal was obtained (FIG. 2). Functional sites on the RAGE polypeptide were determined using a combination of experiments mapping binding interface(s) of anti-RAGE antibodies with RAGE polypeptide using hydrogen-deuterium exchange (HDEX) reactions and cachexia functional assays. As described elsewhere herein, results of the cachexia functional assay indicate whether a candidate agent (e.g., a particular anti-RAGE antibody) has cachexia-inhibitory or cachexia-inducing activity, as measured, for example, by levels of myosin heavy chain in cells treated with the candidate agent relative to a control or baseline myosin heavy chain level.
molecule,measurement,setting,value
"CCCCCC(=Cc1ccccc1)CN(CCc1c[nH]c2ccccc12)C(=O)c1ccc(Cl)c([N+](=O)[O-])c1 [FPS3, reference compound]",cachexia-inhibitory activity (levels of myosin heavy chain),cells treated with various concentrations of FPS3 (FIG. 7B),had cachexia-inhibitory activity
B1,cachexia-inducing activity of RAGE ligands,,non-cachexia-inducing
B2,cachexia-inducing activity of RAGE ligands,,cachexia-inducing
B3,cachexia-inducing activity of RAGE ligands,,non-cachexia-inducing
B4,cachexia-inducing activity of RAGE ligands,,cachexia-inducing
